Where two headings read alike, the source gives them in different places. Where no end group is shown, it is not given here. [ ]: non-standard residue; d: D form. The star is where a group is joined. Acetyl(2-(4-imidazolyl)) = O=C(Cc1c[nH]cn1)*
Experiments:
Experiment in all cases: cell-based or functional assay
[1] = molecular target: human glucagon receptor (human) (UniProt P47871)
[2] = molecular target: human glucagon receptor (human) (UniProt P47871); remark: listed apart in the source
[3] = molecular target: human GLP-1 receptor (human) (UniProt P43220)
human GLP-1 receptor (human), sequence (P43220 24-463): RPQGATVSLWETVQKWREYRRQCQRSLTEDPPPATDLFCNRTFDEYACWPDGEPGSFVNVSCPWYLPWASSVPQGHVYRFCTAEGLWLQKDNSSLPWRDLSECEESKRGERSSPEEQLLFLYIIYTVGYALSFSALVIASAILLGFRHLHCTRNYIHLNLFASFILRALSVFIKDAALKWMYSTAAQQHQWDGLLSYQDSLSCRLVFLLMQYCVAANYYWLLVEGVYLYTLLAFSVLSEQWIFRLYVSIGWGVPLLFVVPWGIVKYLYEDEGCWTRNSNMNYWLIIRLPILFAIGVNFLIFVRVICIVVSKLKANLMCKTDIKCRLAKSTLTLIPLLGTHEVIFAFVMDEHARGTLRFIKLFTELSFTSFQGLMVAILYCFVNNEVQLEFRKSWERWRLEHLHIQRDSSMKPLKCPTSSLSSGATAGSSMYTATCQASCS

human glucagon receptor (human), sequence (P47871 26-477): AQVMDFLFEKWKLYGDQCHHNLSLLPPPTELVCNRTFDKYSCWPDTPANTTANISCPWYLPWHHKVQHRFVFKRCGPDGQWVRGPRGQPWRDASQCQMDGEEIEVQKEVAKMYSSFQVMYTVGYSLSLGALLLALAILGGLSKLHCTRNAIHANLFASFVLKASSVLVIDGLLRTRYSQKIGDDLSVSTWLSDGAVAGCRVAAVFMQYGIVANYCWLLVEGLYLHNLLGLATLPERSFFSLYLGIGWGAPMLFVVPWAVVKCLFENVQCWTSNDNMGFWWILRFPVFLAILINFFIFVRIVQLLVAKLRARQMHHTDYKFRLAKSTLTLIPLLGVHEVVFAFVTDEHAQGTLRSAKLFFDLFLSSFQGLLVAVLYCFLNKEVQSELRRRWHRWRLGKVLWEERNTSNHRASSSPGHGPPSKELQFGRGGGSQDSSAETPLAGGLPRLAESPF

| Molecule | EC50 (nM), cAMP in CHO/GCGR [1] | EC50 (nM), cAMP in CHO/GCGR [2] | EC50 (nM), cAMP in CHO/GLP-1R [3] |
| --- | --- | --- | --- |
| GLP-1 (from UniProt P01275 92-128) (ligand) | > 1000 nM | – | – |
| [Acetyl(2-(4-imidazolyl))]SQGTFTSDYSKYLDERRAQDFVAWLKNTGPSSGAPPPS [oxyntomodulin derivative (SEQ ID NO. 3)] | – | 638 nM | > 1000 nM |
| [Acetyl(2-(4-imidazolyl))]SQGTFTSDLSRQLEEEAVRLFIEWLMNK [oxyntomodulin derivative (SEQ ID NO. 8)] | – | > 1000 nM | 420 nM |
| [Acetyl(2-(4-imidazolyl))]SQGTFTSDYSRYLDEEAVRLFIEWIRNGGPSSGAPPPSK [oxyntomodulin derivative (SEQ ID NO. 18)] | – | > 1000 nM | 96.3 nM |

Source: US20140212440A1
